Data on one sequence can be found in CN105601719A, “拟组织金属蛋白酶抑制因子多肽及其应用” (Suzhou Puluoda Biological Science and Technology Co Ltd, priority 2016, dated 2016).

Experiment [1] deals with recombinant human matrix metalloproteinase-9 (重组人基质金属蛋白酶-9) (Homo sapiens, UniProt P14780). Put plainly: In vitro inhibition of matrix metalloproteinase-9 (fluorogenic peptide cleavage). Type of experiment: biochemical. As to conditions: MMP-9; same fluorogenic substrate, 10 μM final; 37 °C; 100 μl.
Experiment [2] concerns human osteoblasts (人成骨细胞). Briefly: Growth of human osteoblasts cultured in vitro (MTT colorimetric assay). Type of experiment: cell-based. The settings on record: 48 h, absorbance 620 nm.
For experiment [3], the target named is T1, recombinant human matrix metalloproteinase-2 (重组人基质金属蛋白酶-2) (Homo sapiens, UniProt P08253).
T1 construct: 该酶用0.01μM的基质金属蛋白酶-3活性位点活化; made in house; host or cells: E. coli
T1 sequence (P08253 110-660): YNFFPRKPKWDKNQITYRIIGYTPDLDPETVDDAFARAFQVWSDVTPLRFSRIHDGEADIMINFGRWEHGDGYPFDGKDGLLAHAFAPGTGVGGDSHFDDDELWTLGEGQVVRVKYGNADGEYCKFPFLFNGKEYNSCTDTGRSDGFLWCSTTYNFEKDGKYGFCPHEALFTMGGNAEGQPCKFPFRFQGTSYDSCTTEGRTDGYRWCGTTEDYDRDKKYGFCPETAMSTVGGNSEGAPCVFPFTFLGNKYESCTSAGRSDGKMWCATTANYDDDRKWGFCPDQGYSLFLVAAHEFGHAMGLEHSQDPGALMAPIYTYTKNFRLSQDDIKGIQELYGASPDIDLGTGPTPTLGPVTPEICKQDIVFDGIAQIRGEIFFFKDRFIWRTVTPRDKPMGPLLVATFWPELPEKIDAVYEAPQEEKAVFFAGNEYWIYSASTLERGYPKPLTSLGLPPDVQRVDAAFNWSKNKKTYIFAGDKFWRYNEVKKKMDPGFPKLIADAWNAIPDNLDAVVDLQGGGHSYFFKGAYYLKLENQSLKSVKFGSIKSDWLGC
Put plainly: In vitro inhibition of matrix metalloproteinase-2 (fluorogenic peptide cleavage). Type of experiment: biochemical. The settings on record: MMP-2; substrate Mca-Pro-Leu-Gly-Leu-Dpa-Ala-Arg-NH2; pH 7.4; 37 °C; 100 μl.

Chain of recombinant human matrix metalloproteinase-9 (重组人基质金属蛋白酶-9) (P14780 94-707): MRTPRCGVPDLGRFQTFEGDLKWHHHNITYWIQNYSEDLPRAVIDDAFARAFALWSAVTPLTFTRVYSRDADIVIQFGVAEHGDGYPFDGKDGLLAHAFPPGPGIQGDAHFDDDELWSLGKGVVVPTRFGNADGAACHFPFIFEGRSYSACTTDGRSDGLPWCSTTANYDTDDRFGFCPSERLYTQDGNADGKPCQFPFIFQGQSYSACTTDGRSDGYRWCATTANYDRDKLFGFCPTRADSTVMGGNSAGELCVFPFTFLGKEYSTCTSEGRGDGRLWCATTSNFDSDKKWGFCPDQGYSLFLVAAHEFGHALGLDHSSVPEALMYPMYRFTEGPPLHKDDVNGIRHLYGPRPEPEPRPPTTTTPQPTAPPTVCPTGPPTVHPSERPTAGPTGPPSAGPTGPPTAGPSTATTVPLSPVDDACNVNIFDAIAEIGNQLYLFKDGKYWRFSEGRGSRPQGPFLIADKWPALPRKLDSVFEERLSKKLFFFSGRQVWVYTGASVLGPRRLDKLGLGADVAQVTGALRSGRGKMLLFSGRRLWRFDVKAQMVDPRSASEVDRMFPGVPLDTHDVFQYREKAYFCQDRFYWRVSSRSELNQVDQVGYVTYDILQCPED

Consider “PEPEFHLISAFWPSLPSYLDAA [实施例1, TIMP-mimetic 22-residue peptide made by Fmoc solid-phase synthesis]”, for which the IC50 in experiment [1] was 25.8 µM; in experiment [3], 75.1 µM. In addition, the midpoint of the response in experiment [2], the EC50, lay at 13.2 µM.
